From US20050031628A1

How the values were obtained:
[1] = biological target: antigen binding receptors on maturing human monocyte-derived dendritic cells; assay: flow cytometry, maturing dendritic cells loaded with 10 µg/ml HBV S1/S2
[2] = biological target: antigen binding receptors on maturing human monocyte-derived dendritic cells; assay: flow cytometry, 90 µg/mL, 1 h at 4 C, dendritic cells of day 1 of culture, F(ab')2 goat anti-mouse Alexa-488
[3] = biological target: antigen binding receptors on maturing human monocyte-derived dendritic cells; assay: flow cytometry, 90 µg/mL, 1 h at 4 C, dendritic cells of day 2 of culture, F(ab')2 goat anti-mouse Alexa-488
[4] = biological target: antigen binding receptors on maturing human monocyte-derived dendritic cells; assay: flow cytometry, 90 µg/mL, 1 h at 4 C, dendritic cells of day 3 of culture, F(ab')2 goat anti-mouse Alexa-488
[5] = biological target: antigen binding receptors on maturing human monocyte-derived dendritic cells; assay: flow cytometry, 90 µg/mL, 1 h at 4 C, dendritic cells of day 4 of culture, F(ab')2 goat anti-mouse Alexa-488

Substance | % Specific positive cells [1] [%] | Relative MFI [1] | % Specific positive dendritic cells [2] [%] | % Specific positive dendritic cells [3] [%] | % Specific positive dendritic cells [4] [%] | % Specific positive dendritic cells [5] [%]
HBV S1/S2 expressed in E. coli | 12.2 | 3.9 | – | – | – | –
HBV S1/S2 expressed in High Five insect cells (baculovirus) | 69.9 | 40.3 | – | – | – | –
murine IgG2a (G155-178) (antibody) | – | – | 28 | 17.4 | 14.3 | 13.5
